Experimental data reported in article PMC12687421, “Characterisation of an allosteric site in PLCγ enzymes and implications for development of their specific inhibitors” (Biochemical Journal, 2025).

Assay: Specific activity of PLC variants in assay 2 (A2)
Format: biochemical
Details: aldol substrate in solution
Experimental: The effect of nucleotide inhibition on PLC activity was measured using either a membrane-based assay with the fluorescent substrate (XY-69) incorporated into liposomes or using a small soluble substrate, Aldol 518 myo-inositol-1-phosphate (Aldol). Both methods utilised the same PLC assay buffer [20 mM Hepes-KOH, 70 mM KCl, 3 mM EGTA, 2.97 mM CaCl2, 2 mM TCEP and fatty acid-free bovine serum albumin (FAF-BSA; 50 μg/ml) (pH 7.5)]. Both assays were performed in low volume black 384-well plates (Greiner Bio-One), were composed of a final assay volume of 20 μl and were monitored in a Clariostar plate reader (BMG Labtech). […] The excitation and emission wavelengths were 588–15 and 642–20, respectively.
A CLARIOstar plate reader (BMG Labtech) was used to measure the production of the fluorescent product. The excitation and emission wavelengths were 485–15 and 520–20, respectively. Each experiment was performed in at least triplicate; in many cases, nine-fold replicates were generated. The enzyme progress curves were plotted for each concentration of nucleotide using Graphpad Prism software. The initial linear rate of product generation was calculated and converted to a % inhibition when compared with the rate of PLC activity in the absence of nucleotide. […]

| Molecule | Specific Activity A2 |
| --- | --- |
| K491D: PLCγ1 variant with K491D mutation in the nucleotide binding site (protein, UniProt P19174 2-1290, looked up, variant K491D) 1-phosphatidylinositol …: AGAASPCANGCGPGAPSDAEVLHLCRSLEVGTVMTLFYSKKSQRPERKTFQVKLETRQITWSRGADKIEGAIDIREIKEIRPGKTSRDFDRYQEDPAFRPDQSHCFVILYGMEFRLKTLSLQATSEDEVNMWIKGLTWLMEDTLQAPTPLQIERWLRKQFYSVDRNREDRISAKDLKNMLSQVNYRVPNMRFLRERLTDLEQRSGDITYGQFAQLYRSLMYSAQKTMDLPFLEASTLRAGERPELCRVSLPEFQQFLLDYQGELWAVDRLQVQEFMLSFLRDPLREIEEPYFFLDEFVTFLFSKENSVWNSQLDAVCPDTMNNPLSHYWISSSHNTYLTGDQFSSESSLEAYARCLRMGCRCIELDCWDGPDGMPVIYHGHTLTTKIKFSDVLHTIKEHAFVASEYPVILSIEDHCSIAQQRNMAQYFKKVLGDTLLTKPVEISADGLPSPNQLKRKILIKHKKLAEGSAYEEVPTSMMYSENDISNSIDNGILYLEDPVNHEWYPHYFVLTSSKIYYSEETSSDQGNEDEEEPKEVSSSTELHSNEKWFHGKLGAGRDGRHIAERLLTEYCIETGAPDGSFLVRESETFVGDYTLSFWRNGKVQHCRIHSRQDAGTPKFFLTDNLVFDSLYDLITHYQQVPLRCNEFEMRLSEPVPQTNAHESKEWYHASLTRAQAEHMLMRVPRDGAFLVRKRNEPNSYAISFRAEGKIKHCRVQQEGQTVMLGNSEFDSLVDLISYYEKHPLYRKMKLRYPINEEALEKIGTAEPDYGALYEGRNPGFYVEANPMPTFKCAVKALFDYKAQREDELTFIKSAIIQNVEKQEGGWWRGDYGGKKQLWFPSNYVEEMVNPVALEPEREHLDENSPLGDLLRGVLDVPACQIAIRPEGKNNRLFVFSISMASVAHWSLDVAADSQEELQDWVKKIREVAQTADARLTEGKIMERRKKIALELSELVVYCRPVPFDEEKIGTERACYRDMSSFPETKAEKYVNKAKGKKFLQYNRLQLSRIYPKGQRLDSSNYDPLPMWICGSQLVALNFQTPDKPMQMNQALFMTGRHCGYVLQPSTMRDEAFDPFDKSSLRGLEPCAISIEVLGARHLPKNGRGIVCPFVEIEVAGAEYDSTKQKTEFVVDNGLNPVWPAKPFHFQISNPEFAFLRFVVYEEDMFSDQNFLAQATFPVKGLKTGYRAVPLKNNYSEDLELASLLIKIDIFPAKENGDLSPFSGTSLRERGSDASGQLFHGRAREGSFESRYQQPFEDFRISQEHLADHFDSRERRAPRRTRVNGDNRL | 18974 ± 796 RFU/min/mg |
| PLCγ1^wt: full-length wild-type human PLCγ1 enzyme (protein, UniProt P19174 1-1290, looked up, full-length, full-length wild-type human PLCγ1 enzyme) MAGAASPCANGCGPGAPSDAEVLHLCRSLEVGTVMTLFYSKKSQRPERKTFQVKLETRQITWSRGADKIEGAIDIREIKEIRPGKTSRDFDRYQEDPAFRPDQSHCFVILYGMEFRLKTLSLQATSEDEVNMWIKGLTWLMEDTLQAPTPLQIERWLRKQFYSVDRNREDRISAKDLKNMLSQVNYRVPNMRFLRERLTDLEQRSGDITYGQFAQLYRSLMYSAQKTMDLPFLEASTLRAGERPELCRVSLPEFQQFLLDYQGELWAVDRLQVQEFMLSFLRDPLREIEEPYFFLDEFVTFLFSKENSVWNSQLDAVCPDTMNNPLSHYWISSSHNTYLTGDQFSSESSLEAYARCLRMGCRCIELDCWDGPDGMPVIYHGHTLTTKIKFSDVLHTIKEHAFVASEYPVILSIEDHCSIAQQRNMAQYFKKVLGDTLLTKPVEISADGLPSPNQLKRKILIKHKKLAEGSAYEEVPTSMMYSENDISNSIKNGILYLEDPVNHEWYPHYFVLTSSKIYYSEETSSDQGNEDEEEPKEVSSSTELHSNEKWFHGKLGAGRDGRHIAERLLTEYCIETGAPDGSFLVRESETFVGDYTLSFWRNGKVQHCRIHSRQDAGTPKFFLTDNLVFDSLYDLITHYQQVPLRCNEFEMRLSEPVPQTNAHESKEWYHASLTRAQAEHMLMRVPRDGAFLVRKRNEPNSYAISFRAEGKIKHCRVQQEGQTVMLGNSEFDSLVDLISYYEKHPLYRKMKLRYPINEEALEKIGTAEPDYGALYEGRNPGFYVEANPMPTFKCAVKALFDYKAQREDELTFIKSAIIQNVEKQEGGWWRGDYGGKKQLWFPSNYVEEMVNPVALEPEREHLDENSPLGDLLRGVLDVPACQIAIRPEGKNNRLFVFSISMASVAHWSLDVAADSQEELQDWVKKIREVAQTADARLTEGKIMERRKKIALELSELVVYCRPVPFDEEKIGTERACYRDMSSFPETKAEKYVNKAKGKKFLQYNRLQLSRIYPKGQRLDSSNYDPLPMWICGSQLVALNFQTPDKPMQMNQALFMTGRHCGYVLQPSTMRDEAFDPFDKSSLRGLEPCAISIEVLGARHLPKNGRGIVCPFVEIEVAGAEYDSTKQKTEFVVDNGLNPVWPAKPFHFQISNPEFAFLRFVVYEEDMFSDQNFLAQATFPVKGLKTGYRAVPLKNNYSEDLELASLLIKIDIFPAKENGDLSPFSGTSLRERGSDASGQLFHGRAREGSFESRYQQPFEDFRISQEHLADHFDSRERRAPRRTRVNGDNRL | 18606 ± 685 RFU/min/mg |
